In US20230084763A1 (published 2023) one finds Kd data, which are given here for 3 molecules.

Test [1] concerns the target T1, CD20 (UniProt P11836 1-297).
T1 chain: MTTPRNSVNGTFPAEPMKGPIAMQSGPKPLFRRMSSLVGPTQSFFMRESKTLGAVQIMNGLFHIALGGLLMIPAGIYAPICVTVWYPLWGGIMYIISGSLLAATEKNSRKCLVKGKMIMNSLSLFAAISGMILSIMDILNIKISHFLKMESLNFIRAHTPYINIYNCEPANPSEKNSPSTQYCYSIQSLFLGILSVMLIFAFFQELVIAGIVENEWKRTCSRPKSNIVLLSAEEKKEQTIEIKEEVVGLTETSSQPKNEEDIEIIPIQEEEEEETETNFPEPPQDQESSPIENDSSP
The test is described as follows: bio-layer interferometry; scFv, Avg of 3 runs. A general note: BLI is a label-free optical method that tracks binding on a fibre tip over time.

Test [2] has as its target T1, CD20. The test is described as follows: bio-layer interferometry; scFv, Run 1.
In test [3] the target is T1, CD20. The test is described as follows: bio-layer interferometry; scFv, Run 2.
For test [4], the target named is T1, CD20. The test is described as follows: bio-layer interferometry; scFv, Run 3.

In general, Kd refers to the equilibrium constant for the complex coming apart.

B1: Leu16 (antibody, V domains shown)
VH: EVQLQQSGAELVKPGASVKMSCKASGYTFTSYNMHWVKQTPGQGLEWIGAIYPGNGDTSYNQKFKGKATLTADKSSSTAYMQLSSLTSEDSADYYCARSNYYGSSYWFFDVWGAGTTVTVSS
VL: DIVLTQSPAILSASPGEKVTMTCRASSSVNYMDWYQKKPGSSPKPWIYATSNLASGVPARFSGSGSGTSYSLTISRVEAEDAATYYCQQWSFNPPTFGGGTKLEIK
B1: the Kd in test [1] worked out at 138 nM; in test [2], 157 nM; in test [3], 127 nM; in test [4] it was 131 nM.

B2: Rituximab (antibody, V domains shown)
VH: QVQLQQPGAELVKPGASVKMSCKASGYTFTSYNMHWVKQTPGRGLEWIGAIYPGNGDTSYNQKFKGKATLTADKSSSTAYMQLSSLTSEDSAVYYCARSTYYGGDWYFNVWGAGTTVTVSS
VL: QIVLSQSPAILSASPGEKVTMTCRASSSVSYIHWFQQKPGSSPKPWIYATSNLASGVPVRFSGSGSGTSYSLTISRVEAEDAATYYCQQWTSNPPTFGGGTKLEIK
As to B2, the Kd in test [1] was determined as 119 nM; in test [4], 122 nM.

B3: Hybrid (antibody, V domains shown)
VH: QVQLQQPGAELVKPGASVKMSCKASGYTFTSYNMHWVKQTPGRGLEWIGAIYPGNGDTSYNQKFKGKATLTADKSSSTAYMQLSSLTSEDSAVYYCARSNYYGSSYWFFDVWGAGTTVTVSS
VL: QIVLSQSPAILSASPGEKVTMTCRASSSVNYMDWFQQKPGSSPKPWIYATSNLASGVPVRFSGSGSGTSYSLTISRVEAEDAATYYCQQWSFNPPTFGGGTKLEIK
With B3, the Kd was 84.4 nM in test [1], 75.5 nM in test [2], 95.5 nM in test [3] and 82.2 nM in test [4].
